Measurements from patent US20090092595A1, “Suppression of sPLA2-integrin binding for treating an inflammatory condition” (REGENTS OF THE UNIVERSITY OF CALIFORNIA, priority 2007, published 2009).

Columns and labels:
[1] = target: T1, integrin αvβ3 (Homo sapiens, UniProt P05106+P06756); assay: Surface plasmon resonance study of sPLA2-IIA binding to immobilized soluble integrin αvβ3; details: SPR, soluble αvβ3 immobilized on sensor chip, 1 mM Mn2+; listed as human sPLA2-IIA
T1 construct: Recombinant soluble αvβ3 was synthesized as previously described; made in house
Method: Surface plasmon resonance study Recombinant soluble integrin αvβ3 was immobilized to Biacore Sensor chip CM5 (Biacore, Piscataway, N.J.) by the standard amine coupling method. Two-fold serial diluted sPLA2-IIA and its mutants R74E/R100E (ranging from 2 nM to 500 pM) and H47Q (ranging from 4 nM to 1 nM) in running buffer HBS-P buffer containing 1 mM of Mn^2+ were injected for 3 min at the flow rate of 50 μL/min. Then the sensor chip was washed with the running buffer alone at the same flow rate for another 5 min (the dissociation phase). Two consecutive one-minute injections of 0.5 M, pH 8 EDTA solution at the same flow rate were used to regenerate the chip for another cycle of injection. The resonance unit elicited from the reference flow cell was subtracted from the resonance unit elicited from the integrin flow cell to eliminate the non-specific protein-flow cell interaction and the bulk refractive index effect. The recorded binding curves were fitted with the “1:1 binding with drifting baseline model” by using the Biaevaluation Version 4.1.

[2] = system: mock-transfected K562 cells; assay: Proliferation of mock-transfected K562 cells (MTS assay); format: cell-based, human; details: serum-starved 48 h, stimulated 48 h
Method: Cells were serum-starved for 48 h and stimulated with sPLA2-IIA for 48 h. Cell proliferation was determined by MTS assays. Data is shown as means+/−SEM of triplicate experiments. α4- and αvβ3-K562 cells proliferated faster than mock-K562 cells. […] Serum-starved cells were stimulated with wt or mutant sPLA2-IIA (0.5 μg/ml) for 48 h. Data is shown as means+/−SEM of triplicate experiments. α4-K562 and αvβ3-K562 cells grew faster than mock K562 cells with wt and H47Q sPLA2-IIA (*P<0.05 by t-test).
(§1) Cell proliferation and MAP kinase activation K562 cells and human monocytic lymphoma U937 cells were maintained in RPM11640 medium supplemented with 10% FCS. Cells were plated in 96-well plates (1×10^4 cells/well), and serum-starved for 48 h at 37° C. in 5% CO2 atmosphere. Cells were then treated with or without sPLA2-IIA in medium without serum for 48 h. Cell proliferation was determined by MTS assays using the Aqueous Cell Proliferation Assay Kit (Promega). For MAP kinase activation assays, cells were serum starved in RPMI1640 medium supplemented with 0.4% FCS for 24 h, and stimulated with Wt and mutant sPLA2-IIA (0.5 μg/ml) for 10 min at 37° C. ERK1/2 activation was measured as described (Mori, S. et al., J Biol Chem, in press (2008)).

[3] = system: U937 human monocytic lymphoma cells; assay: Proliferation of U937 cells (MTS assay); format: cell-based; details: serum-starved 48 h, treated 48 h
Method: (§2) U937 cells (αvβ3+, α4β1+) were plated in wells of 96-well plates (10,000 cells/well), and serum-starved for 48 h. After treatment with wt or mutant sPLA2-IIA for 48 h, we measured cell proliferation by MTS assays. […] U937 cells were serum-starved for 24 h, and stimulated with wt and mutant sPLA2-IIA (0.5 μg/ml) for 10 min at 37° C. Cell lysates were analyzed by western blotting with anti-phospho ERK1/2 or anti-ERK1/2 antibodies. The blot is representative of three independent experiments.
as §1

[4] = system: fibronectin domains 8-11; assay: Adhesion of U937 cells to the cell-binding domain of fibronectin in the presence of sPLA2-IIA; format: cell-based, human; details: increasing concentrations of sPLA2-IIA, 1 h, 37° C.
Method: (§3) FIG. 5. sPLA2-IIA binding to integrin α4β1. a) Cells expressing recombinant α4β1 adhered to wt sPLA2-IIA better than cells expressing other recombinant integrins. We used transfected K562 cells clonally express different human integrins for adhesion assays. Low background adhesion to BSA was subtracted. […] Wells of 96-well microtiter plate were coated with VCAM-1 and FN-GST, and incubated with U937 cells (1×10^4 cells/plate) in the presence of the increasing concentrations of sPLA2-IIA for 1 h at 37° C. Adherent cells were quantified using endogenous phosphatase after gently rinsing the well to remove unbound cells. Data is shown as means+/−SEM of triplicate experiments. *P=0.0101 and **P<0.0001 by t-test. c) Amino acid sequence in the α4 subunit that is critical for VCAM-1 and CS-1 binding is also critical for sPLA2-IIA binding. CHO cells that clonally express wt or mutant α4 (Irie, A. et al., Embo J, 14(22): 5550-5556 (1995)) were used for adhesion assays. Data is shown as means+/−SEM of triplicate experiments. Similar results were obtained using K562 cells expressing α4 mutants (not shown).
(§4) Other methods We performed docking simulation of interaction between sPLA2-IIA and integrin αvβ3 using the AutoDock3 as previously described (Mori, S. et al., J Biol Chem, in press (2008)). […]

[5] = system: mutant α4 subunit (Tyr-189 and Gly-190 to Ala); assay: Adhesion of CHO cells expressing wt or mutant α4 to sPLA2-IIA; format: cell-based
Method: as §3, §4

[6] = system: ERK1/2; assay: MAP kinase (ERK1/2) activation in U937 cells, western blotting; format: cell-based, human; details: 0.5 μg/ml, 10 min, 37° C.
Method: as §2, §1

[7] = target: T2, soluble integrin αvβ3 (Homo sapiens, UniProt P05106+P06756); assay: Binding of soluble αvβ3 to immobilized sPLA2-IIA (ELISA-type assay); details: immobilized protein, 20 μg/ml coating
T2 construct: Recombinant soluble αvβ3 was synthesized as previously described; made in house
Method: Binding of soluble αvβ3 to immobilized sPLA2-IIA sPLA2-IIA was immobilized to wells of 96 well microtiter plates and the remaining protein-binding sites were blocked by BSA as described (Mori, S. et al., J Biol Chem, 283:18066-18075 (2008)). Soluble recombinant αvβ3 at 5 μg/ml in Hepes-Tyrodes buffer supplemented with 1 mM MnCl2 was added to the well and incubated for 2 h. Bound αvβ3 was measured using anti-integrin β3 (mAb AV-10) followed by HRP-conjugated goat anti-mouse IgG and peroxidase substrates.

T2 sequence (P06756 31-992 limits assumed): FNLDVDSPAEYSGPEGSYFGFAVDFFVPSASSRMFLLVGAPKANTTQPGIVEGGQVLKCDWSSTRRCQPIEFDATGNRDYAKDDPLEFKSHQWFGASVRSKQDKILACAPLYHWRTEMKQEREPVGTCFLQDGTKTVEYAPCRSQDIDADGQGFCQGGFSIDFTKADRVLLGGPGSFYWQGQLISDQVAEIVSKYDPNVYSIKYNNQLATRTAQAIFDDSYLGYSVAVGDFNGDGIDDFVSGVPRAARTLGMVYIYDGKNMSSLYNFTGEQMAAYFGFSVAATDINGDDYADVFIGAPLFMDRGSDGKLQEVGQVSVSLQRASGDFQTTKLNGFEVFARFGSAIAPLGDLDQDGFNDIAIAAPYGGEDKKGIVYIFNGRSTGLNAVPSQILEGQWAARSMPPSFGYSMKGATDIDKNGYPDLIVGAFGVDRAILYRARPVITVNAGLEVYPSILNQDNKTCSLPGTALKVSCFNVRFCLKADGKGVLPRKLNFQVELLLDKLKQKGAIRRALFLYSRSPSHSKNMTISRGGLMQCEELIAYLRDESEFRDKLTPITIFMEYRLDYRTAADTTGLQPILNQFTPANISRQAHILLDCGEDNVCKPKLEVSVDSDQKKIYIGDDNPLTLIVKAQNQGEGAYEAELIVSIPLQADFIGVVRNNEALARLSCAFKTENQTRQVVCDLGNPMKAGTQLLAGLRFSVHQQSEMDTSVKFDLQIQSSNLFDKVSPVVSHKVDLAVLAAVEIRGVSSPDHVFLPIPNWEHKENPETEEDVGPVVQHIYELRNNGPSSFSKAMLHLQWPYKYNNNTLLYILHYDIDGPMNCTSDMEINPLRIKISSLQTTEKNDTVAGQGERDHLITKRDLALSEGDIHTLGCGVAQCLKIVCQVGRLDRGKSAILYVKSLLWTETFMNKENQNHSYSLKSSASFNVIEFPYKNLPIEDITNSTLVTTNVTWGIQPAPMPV
T2 sequence (P05106 27-718 limits assumed): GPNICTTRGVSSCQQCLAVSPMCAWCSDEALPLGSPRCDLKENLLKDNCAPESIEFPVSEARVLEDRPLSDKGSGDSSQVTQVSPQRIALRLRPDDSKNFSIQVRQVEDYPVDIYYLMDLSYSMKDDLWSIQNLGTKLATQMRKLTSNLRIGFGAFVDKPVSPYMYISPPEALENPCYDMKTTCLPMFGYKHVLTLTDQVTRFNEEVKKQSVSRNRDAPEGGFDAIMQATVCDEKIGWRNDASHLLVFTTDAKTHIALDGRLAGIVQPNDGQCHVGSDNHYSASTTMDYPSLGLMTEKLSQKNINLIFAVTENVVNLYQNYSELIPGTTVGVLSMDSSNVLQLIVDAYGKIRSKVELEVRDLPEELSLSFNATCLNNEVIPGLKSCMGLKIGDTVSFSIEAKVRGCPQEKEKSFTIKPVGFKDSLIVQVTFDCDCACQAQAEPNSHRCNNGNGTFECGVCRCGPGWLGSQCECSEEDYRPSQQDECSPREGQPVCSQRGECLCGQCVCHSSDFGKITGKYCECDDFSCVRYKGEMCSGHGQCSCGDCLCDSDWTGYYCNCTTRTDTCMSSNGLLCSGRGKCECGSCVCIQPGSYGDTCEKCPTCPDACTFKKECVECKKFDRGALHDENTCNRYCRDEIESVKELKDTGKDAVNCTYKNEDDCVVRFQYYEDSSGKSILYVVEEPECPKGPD
T1 sequence (P06756 31-992 limits assumed): as the sequence (P06756 31-992 limits assumed) above
T1 sequence (P05106 27-718 limits assumed): as the sequence (P05106 27-718 limits assumed) above

B1: wt sPLA2-IIA: Secretory phospholipase A2 group IIA, wild type, recombinant from bacteria BL21, refolded (protein)
chain: NLVNFHRMIKLTTGKEAALSYGFYGCHCGVGGRGSPKDATDRCCVTHDCCYKRLEKRGCGTKFLSYKFSNSGSRITCAKQDSCRSQLCECDKAAATCFARNKTTYNKKYQYYSNKHCRGSTPRC
modifications: left off: small tags and cut ends
[1]
  Kd: 200 nM
[2]
  proliferation of mock-transfected K562 cells: did not induce proliferation
[3]
  proliferation of monocytic U937 cells: induced robust proliferation
[4]
  cell adhesion to fibronectin domains 8-11: did not suppress cell adhesion
[5]
  binding of α4 mutants (Tyr-189 and Gly-190 to Ala) to sPLA2-IIA: blocked binding
[6]
  ERK1/2 activation in U937 cells: induced
[7]
  binding to soluble αvβ3: bound
